According to patent US12533403B2, “Peptide conjugated particles” (NORTHWESTERN UNIVERSITY, priority 2013, dated 2026):

System: allergic airway inflammation (murine allergy model)
Assay: Therapeutic treatment of OVA/Alum-induced allergic airway inflammation
Format: in vivo, mice
Conditions: treated after exposure to OVA
Description: To test the therapeutic effect of OVA encapsulated in PLG particles on airway inflammation, mice were treated intraperitoneally with OVA/Alum at a dose of 10 μg/mouse on day 0 and day 14. The mice were intravenously administered with OVA-PLG on days 28, and 42. Between days 56-58, the mice were treated three times with aerosolized OVA.
The animals were treated as described above except that on days 28 and 42, the mice were treated with either OVA encapsulated in PLG particles, or OVA coupled to PLG particles.
In the allergy model, coupled nanoparticles have a propensity to cause anaphylaxis and are not an effective therapy. […] Animals were exposed to OVA as an allergen, and were then treated with either a sham-PLG or TIMP particle, a PLG or TIMP particle with OVA, or no treatment.

B1: OVA-PLG surface coupled particles: PLGA particle with OVA coupled to the outside of the particle (conjugate, UniProt P01012 2-386, looked up)
Ovalbumin: GSIGAASMEFCFDVFKELKVHHANENIFYCPIAIMSALAMVYLGAKDSTRTQINKVVRFDKLPGFGDSIEAQCGTSVNVHSSLRDILNQITKPNDVYSFSLASRLYAEERYPILPEYLQCVKELYRGGLEPINFQTAADQARELINSWVESQTNGIIRNVLQPSSVDSQTAMVLVNAIVFKGLWEKAFKDEDTQAMPFRVTEQESKPVQMMYQIGLFRVASMASEKMKILELPFASGTMSMLVLLPDEVSGLEQLESIINFEKLTEWTSSNVMEERKIKVYLPRMKMEEKYNLTSVLMAMGITDVFSSSANLSGISSAESLKISQAVHAAHAEINEAGREVVGSAEAGVDAASVSEEFRADHPFLFCIKHIATNAVLFFGRCVSP
modifications: coupled to PLG particles
B1 was tested, and the TH2 response was “fail to reduce the TH2 response”.
